FireProtDB (doi:10.1529/biophysj.106.103804)

Settings: Bacillus licheniformis, CD, reversible: Yes
[1] = pH 6, Thermal, Sodium phosphate Sodium fluoride 25 mM 100 mM
[2] = pH 6.5, Thermal, Sodium phosphate Sodium fluoride 25 mM 100 mM
[3] = pH 7, 22 °C, Urea, Fluorescence, Thiol reactivity, Sodium phosphate 100 mM, transition: 3
[4] = pH 7, Thermal, Sodium phosphate Sodium fluoride 25 mM 100 mM
[5] = pH 7.5, Thermal, Sodium phosphate Sodium fluoride 25 mM 100 mM
[6] = pH 8, Thermal, Sodium phosphate Sodium fluoride 25 mM 100 mM

## MKLWFSTLKLKKAA [wild type]
[1]
  heat capacity change of unfolding: 3.9 kcal/mol/K
  unfolding enthalpy (van 't Hoff): 141 kcal/mol
  unfolding free energy: 7.2 kcal/mol
[2]
  Tm: 67.9 °C
  unfolding enthalpy (van 't Hoff): 147 kcal/mol
[3]
  denaturant midpoint (higher = more stable): 3 M
  unfolding free energy: 5.2 kcal/mol
[4]
  Tm: 67 °C
  unfolding enthalpy (van 't Hoff): 140 kcal/mol
[5]
  Tm: 66.5 °C
  unfolding enthalpy (van 't Hoff): 163 kcal/mol
[6]
  Tm: 65.1 °C
  unfolding enthalpy (van 't Hoff): 133 kcal/mol
